PMC11176301 (2024)

What was measured:
[1] = biological target: T1, Influenza A MP54 (influenza M protein) peptide on HLA-DRA*01:01 / HLA-DRB1*04:01 (human); assay: proliferation
T1 peptide: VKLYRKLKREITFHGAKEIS

[2] = biological target: T2, GAD65 peptide on HLA-DRA*01:01 / HLA-DRB1*04:01 (human); assay: proliferation
T2 peptide: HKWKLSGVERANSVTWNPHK

[3] = biological target: T1, Influenza A MP54 (influenza M protein) …; assay: activation reporter or marker

B1: Clone 81 (TCR)
alpha TRAV29DV5 TRAJ45 CDR3: CAASRYSGGGADGLTF
beta TRBV12-4 TRBJ1-1 CDR3: CASSPQGGNTEAFF
- binding result [1]: recognises
- binding result [2]: recognises

B2: Clone 566 (TCR)
alpha TRAV29DV5 TRAJ45 CDR3: CAASRYSGGGADGLTF
beta TRBV12-4 TRBJ1-1 CDR3: CASSVQGGNTEAFF
- binding result [1]: recognises
- binding result [2]: recognises

B3: P196-1 (TCR)
alpha TRAV29DV5 TRAJ45 CDR3: CAASRYSGGGADGLTF
beta TRBV12-4 TRBJ1-1 CDR3: CASSLQGGNTEAFF
- binding result [3]: recognises
- binding result [2]: recognises
